Results taken from patent US20170342151A1.

Tests used:
[1] = target: human chondroitin sulfate proteoglycan 4 (CSPG4) on cells (human) (UniProt Q6UVK1); assay: FACS on M14 cells, negative control antibody, amount not given, PE goat anti-human secondary; the same row stands in all three tables of the figure
CD3 on T cells [2] = target: CD3 on T cells (UniProt P07766); assay: FACS on T cells, negative control antibody, amount not given, PE goat anti-human secondary; the same row stands in all three tables of the figure
CD3 on T cells [3] = target: CD3 on T cells (UniProt P07766); assay: FACS on T cells, 0.1 ug antibody, PE goat anti-human secondary; panel labelled CONTROL
CD3 on T cells [4] = target: CD3 on T cells (UniProt P07766); assay: FACS on T cells, 0.01 ug antibody, PE goat anti-human secondary; panel labelled CONTROL
CD3 on T cells [5] = target: CD3 on T cells (UniProt P07766); assay: FACS on T cells, 1 ug antibody, PE goat anti-human secondary; panel labelled CONTROL
[6] = target: CD3 antigen (surface plasmon resonance); assay: SPR, Biacore, two state reaction model

CD3 on T cells, sequence (P07766 23-207, chain 1 of 3): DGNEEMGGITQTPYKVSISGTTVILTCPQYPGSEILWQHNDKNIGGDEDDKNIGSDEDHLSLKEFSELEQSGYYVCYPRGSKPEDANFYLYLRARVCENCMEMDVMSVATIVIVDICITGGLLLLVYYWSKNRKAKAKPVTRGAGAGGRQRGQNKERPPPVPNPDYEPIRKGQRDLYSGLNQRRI
CD3 on T cells, sequence (P09693 23-182, chain 2 of 3, further chain): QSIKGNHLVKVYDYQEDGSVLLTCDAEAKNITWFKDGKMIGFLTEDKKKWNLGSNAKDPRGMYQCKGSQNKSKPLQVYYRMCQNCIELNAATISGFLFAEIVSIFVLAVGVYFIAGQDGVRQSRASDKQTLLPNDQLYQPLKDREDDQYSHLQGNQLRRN
CD3 on T cells, sequence (P04234 22-171, chain 3 of 3, further chain): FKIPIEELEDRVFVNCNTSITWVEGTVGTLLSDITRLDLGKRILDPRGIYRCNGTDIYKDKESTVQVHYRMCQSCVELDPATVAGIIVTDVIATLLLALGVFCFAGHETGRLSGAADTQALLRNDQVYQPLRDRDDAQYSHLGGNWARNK
human chondroitin sulfate proteoglycan 4 (CSPG4) on cells (human), sequence (Q6UVK1 30-2322 limits assumed): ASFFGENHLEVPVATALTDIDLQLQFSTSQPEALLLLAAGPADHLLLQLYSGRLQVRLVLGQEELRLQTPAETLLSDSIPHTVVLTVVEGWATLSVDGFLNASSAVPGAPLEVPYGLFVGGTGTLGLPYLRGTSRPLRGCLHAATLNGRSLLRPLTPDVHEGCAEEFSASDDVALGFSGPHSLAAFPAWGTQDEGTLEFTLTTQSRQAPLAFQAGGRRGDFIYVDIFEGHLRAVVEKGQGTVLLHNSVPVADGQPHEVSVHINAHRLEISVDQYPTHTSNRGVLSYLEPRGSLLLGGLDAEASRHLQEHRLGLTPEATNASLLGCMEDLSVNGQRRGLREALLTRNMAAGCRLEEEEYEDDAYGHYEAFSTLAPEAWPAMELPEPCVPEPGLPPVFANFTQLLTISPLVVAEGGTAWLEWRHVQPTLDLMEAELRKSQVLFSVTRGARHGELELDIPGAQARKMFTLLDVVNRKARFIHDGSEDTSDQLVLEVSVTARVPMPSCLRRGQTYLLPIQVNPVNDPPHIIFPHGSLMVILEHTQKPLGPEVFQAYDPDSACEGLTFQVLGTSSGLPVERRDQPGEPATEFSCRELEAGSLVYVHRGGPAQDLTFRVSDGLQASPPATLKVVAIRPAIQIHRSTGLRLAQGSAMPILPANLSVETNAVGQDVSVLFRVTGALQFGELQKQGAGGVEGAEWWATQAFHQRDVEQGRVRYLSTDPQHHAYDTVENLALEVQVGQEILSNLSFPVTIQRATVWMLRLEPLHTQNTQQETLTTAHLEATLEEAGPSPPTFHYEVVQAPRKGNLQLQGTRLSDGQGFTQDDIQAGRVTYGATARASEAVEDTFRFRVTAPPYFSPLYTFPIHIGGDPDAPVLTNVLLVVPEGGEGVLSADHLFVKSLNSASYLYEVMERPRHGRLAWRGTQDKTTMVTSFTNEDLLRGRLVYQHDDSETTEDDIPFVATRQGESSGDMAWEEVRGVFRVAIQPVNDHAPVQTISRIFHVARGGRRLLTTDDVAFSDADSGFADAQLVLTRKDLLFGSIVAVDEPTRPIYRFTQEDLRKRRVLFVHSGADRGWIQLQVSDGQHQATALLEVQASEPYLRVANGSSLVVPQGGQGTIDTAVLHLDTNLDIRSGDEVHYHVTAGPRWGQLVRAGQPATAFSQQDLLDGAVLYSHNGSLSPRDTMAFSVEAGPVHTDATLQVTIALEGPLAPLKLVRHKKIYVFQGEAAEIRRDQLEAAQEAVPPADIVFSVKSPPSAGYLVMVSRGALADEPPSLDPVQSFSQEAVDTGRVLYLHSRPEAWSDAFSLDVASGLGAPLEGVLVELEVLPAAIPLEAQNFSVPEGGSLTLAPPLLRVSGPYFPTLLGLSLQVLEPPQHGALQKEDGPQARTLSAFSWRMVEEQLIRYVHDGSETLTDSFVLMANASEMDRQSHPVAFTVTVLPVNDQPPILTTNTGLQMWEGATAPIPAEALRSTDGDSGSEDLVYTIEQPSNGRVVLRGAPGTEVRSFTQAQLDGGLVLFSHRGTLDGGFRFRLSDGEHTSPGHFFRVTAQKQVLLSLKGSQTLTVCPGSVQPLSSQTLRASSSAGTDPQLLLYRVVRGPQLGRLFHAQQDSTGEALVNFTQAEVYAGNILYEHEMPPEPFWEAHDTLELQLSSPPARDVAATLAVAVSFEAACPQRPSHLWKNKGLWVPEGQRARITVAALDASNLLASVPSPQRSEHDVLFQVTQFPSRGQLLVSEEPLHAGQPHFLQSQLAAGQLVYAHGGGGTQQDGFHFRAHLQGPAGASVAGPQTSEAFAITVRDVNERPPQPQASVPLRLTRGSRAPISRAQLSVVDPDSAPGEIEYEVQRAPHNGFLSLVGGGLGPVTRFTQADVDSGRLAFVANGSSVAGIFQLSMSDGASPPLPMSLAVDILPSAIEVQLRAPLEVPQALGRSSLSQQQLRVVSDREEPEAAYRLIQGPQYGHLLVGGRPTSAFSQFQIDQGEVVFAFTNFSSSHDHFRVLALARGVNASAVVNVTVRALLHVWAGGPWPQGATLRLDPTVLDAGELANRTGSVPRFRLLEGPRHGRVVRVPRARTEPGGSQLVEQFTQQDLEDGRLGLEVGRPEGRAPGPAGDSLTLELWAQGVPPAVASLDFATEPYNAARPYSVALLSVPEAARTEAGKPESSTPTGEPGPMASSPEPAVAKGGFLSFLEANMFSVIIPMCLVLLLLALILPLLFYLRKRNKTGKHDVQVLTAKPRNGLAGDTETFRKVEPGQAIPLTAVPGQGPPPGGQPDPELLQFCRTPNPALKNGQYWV

control human IgG1 antibody (non-specific for CSPG4 or T cells)
GEOMETRIC MEAN : FL2-H [1]: 5.15
GEOMETRIC MEAN : FL2-H (CD3 on T cells [2]): 5.1

humanized OKT3 IgG1-aGlyco (antibody)
GEOMETRIC MEAN : FL2-H (CD3 on T cells [3]): 645
GEOMETRIC MEAN : FL2-H (CD3 on T cells [4]): 66.1
GEOMETRIC MEAN : FL2-H (CD3 on T cells [5]): 2010
Kd [6]: 61.7 nM
koff [6]: 0.105 s⁻¹
kon [6]: 1.71e+06 M⁻¹ s⁻¹
